{"source": "patent US7393918B2", "about": "“Protein binding miniature proteins and uses thereof” (priority 2003, dated 2008)", "key": {"Mena1-112 EVH1 domain": {"biological_target": "Mena1-112 EVH1 domain (Mus musculus, UniProt Q03173)", "sequence (Q03173 1-112)": "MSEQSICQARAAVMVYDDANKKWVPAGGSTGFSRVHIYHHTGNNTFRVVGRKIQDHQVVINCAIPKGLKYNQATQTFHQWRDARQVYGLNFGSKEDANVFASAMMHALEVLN", "assay": "tryptophan fluorescence perturbation analysis of EVH1 domain binding", "details": "all EVH1 domains tested (Mena1-112, VASP1-115, Evl1-115)"}, "Mena1-112": {"biological_target": "Mena1-112 (Mus musculus, UniProt Q03173)", "sequence (Q03173 1-112)": "as above", "assay": "competition with pGolemi^Flu for binding to Mena1-112", "details": "read-out: IC50, competition with pGolemi^Flu for binding to Mena1-112"}, "L. monocytogenes": {"system": "L. monocytogenes", "assay": "L. monocytogenes actin-based motility in Xenopus laevis egg cytoplasmic extracts", "design": "species or system Listeria monocytogenes", "procedure": "Errors bars show the intraquartile range.\nL. monocytogenes motility in mammalian cells and extracts is due to interactions between the 639-residue bacterial protein ActA and host proteins that recruit and activate actin polymerization. Addition of 10 μM ActA11 decreased the median speed of L. monocytogenes by 89%, consistent with previous work. […] Further experimentation will be required to fully understand the molecular events that result in altered motility."}}, "data": [{"substance": "ActA11: 11 residue peptide comprising PPII repeat 2 of L. monocytogenes ActA; best previously known Mena ligand (DFPPPPTDEEL; ActA11, peptide comprising PPII repeat of ActA protein)", "values": [{"measurement": "Krel among EVH1 domains", "setting": "Mena1-112 EVH1 domain", "result": "< 3"}, {"measurement": "IC50", "setting": "Mena1-112", "result": "4 ± 0.2", "unit": "µM"}, {"measurement": "decrease of median speed of L. monocytogenes", "setting": "L. monocytogenes; 10 μM", "result": 89, "unit": "%"}, {"measurement": "discontinuous tail formation of L. monocytogenes", "setting": "L. monocytogenes; any concentration tested", "result": "Discontinuous tails were not observed"}]}]}
